Test results published in publication PMC12002259, “Monomers and short oligomers of human RAD52 promote single-strand annealing” (Proceedings of the National Academy of Sciences of the …, 2023).
Values joined by “and” are separate entries in the source; they are usually repeats but may differ in a detail not shown here. Identical values can stand only once.

Key:
[1] = biological target: the molecule itself; assay: mass photometry; single 60-s reading at 200 nM protein, label-free, adsorbed on glass; Buffer 1 (20 mM Tris-HCl, 50 mM NaCl, pH 7.5); stock diluted to 1 uM, then to the final concentration, measured directly after dilution; size of the oligomers
[2] = biological target: the molecule itself; assay: mass photometry; concentration series 10 to 200 nM protein, cumulative histograms from four measurements; Buffer 1 (20 mM Tris-HCl, 50 mM NaCl, pH 7.5); linear fits and a global fit of noncooperative (isodesmic) assembly coupled with preferential cyclization; Kd is that of a monomer associating with an oligomer of n subunits
[3] = biological target: T1, RAD52(209) (human, UniProt P43351 1-209); assay: EMSA; 37 C; Hill 4.1 ± 0.4; EMSA: 25 mM Tris-acetate, 2 mM Mg(OAc)2, 1 mM DTT, pH 7.5, 10 nM ssDNA, 25 C 10 min or 37 C 5 min; mass photometry: 20 mM Tris-HCl, 50 mM NaCl, pH 7.5; conditions: protein: recombinant; tags: His-tag (pET-15b); chain copies: 11
T1 sequence: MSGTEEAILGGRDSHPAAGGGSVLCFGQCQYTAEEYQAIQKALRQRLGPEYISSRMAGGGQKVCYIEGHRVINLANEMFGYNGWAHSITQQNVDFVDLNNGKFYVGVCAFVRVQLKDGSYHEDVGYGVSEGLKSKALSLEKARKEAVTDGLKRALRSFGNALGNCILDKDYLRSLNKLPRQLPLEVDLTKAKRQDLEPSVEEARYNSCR

[4] = biological target: T2, RAD52 full length (human, UniProt P43351 1-418); assay: EMSA; 37 C; Hill 3.3 ± 0.2; EMSA: 25 mM Tris-acetate, 2 mM Mg(OAc)2, 1 mM DTT, pH 7.5, 10 nM ssDNA, 25 C 10 min or 37 C 5 min; mass photometry: 20 mM Tris-HCl, 50 mM NaCl, pH 7.5; conditions: protein: recombinant; tags: His-tag (pET-15b)
T2 sequence: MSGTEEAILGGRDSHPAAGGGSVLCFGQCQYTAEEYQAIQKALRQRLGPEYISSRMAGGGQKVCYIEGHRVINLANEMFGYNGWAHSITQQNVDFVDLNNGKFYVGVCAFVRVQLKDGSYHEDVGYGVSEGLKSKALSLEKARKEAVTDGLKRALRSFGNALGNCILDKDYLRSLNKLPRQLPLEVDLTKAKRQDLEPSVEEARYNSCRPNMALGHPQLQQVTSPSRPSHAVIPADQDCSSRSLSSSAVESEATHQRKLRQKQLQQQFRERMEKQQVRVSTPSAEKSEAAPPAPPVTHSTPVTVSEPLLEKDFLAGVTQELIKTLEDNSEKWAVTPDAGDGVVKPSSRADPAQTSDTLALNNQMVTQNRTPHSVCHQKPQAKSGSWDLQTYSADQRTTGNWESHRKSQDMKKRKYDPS

[5] = biological target: T2, RAD52 full length; assay: EMSA; 25 C; Hill fixed at 1; EMSA: 25 mM Tris-acetate, 2 mM Mg(OAc)2, 1 mM DTT, pH 7.5, 10 nM ssDNA, 25 C 10 min or 37 C 5 min; mass photometry: 20 mM Tris-HCl, 50 mM NaCl, pH 7.5; conditions: protein: recombinant; tags: His-tag (pET-15b)
[6] = biological target: T1, RAD52(209); assay: EMSA; 25 C; Hill 1.6 ± 0.3; EMSA: 25 mM Tris-acetate, 2 mM Mg(OAc)2, 1 mM DTT, pH 7.5, 10 nM ssDNA, 25 C 10 min or 37 C 5 min; mass photometry: 20 mM Tris-HCl, 50 mM NaCl, pH 7.5; conditions: protein: recombinant; tags: His-tag (pET-15b); chain copies: 11
[7] = biological target: T2, RAD52 full length; assay: EMSA; 37 C; Hill 2.7 ± 0.2; EMSA: 25 mM Tris-acetate, 2 mM Mg(OAc)2, 1 mM DTT, pH 7.5, 10 nM ssDNA, 25 C 10 min or 37 C 5 min; mass photometry: 20 mM Tris-HCl, 50 mM NaCl, pH 7.5; conditions: protein: recombinant; tags: His-tag (pET-15b)
[8] = biological target: T1, RAD52(209); assay: EMSA; 37 C; Hill 3.1 ± 0.5; EMSA: 25 mM Tris-acetate, 2 mM Mg(OAc)2, 1 mM DTT, pH 7.5, 10 nM ssDNA, 25 C 10 min or 37 C 5 min; mass photometry: 20 mM Tris-HCl, 50 mM NaCl, pH 7.5; conditions: protein: recombinant; tags: His-tag (pET-15b); chain copies: 11
[9] = biological target: T1, RAD52(209); assay: EMSA; 25 C; Hill 1.5 ± 0.2; EMSA: 25 mM Tris-acetate, 2 mM Mg(OAc)2, 1 mM DTT, pH 7.5, 10 nM ssDNA, 25 C 10 min or 37 C 5 min; mass photometry: 20 mM Tris-HCl, 50 mM NaCl, pH 7.5; conditions: protein: recombinant; tags: His-tag (pET-15b); chain copies: 11
[10] = biological target: T2, RAD52 full length; assay: EMSA; 25 C; Hill 1.4 ± 0.2; EMSA: 25 mM Tris-acetate, 2 mM Mg(OAc)2, 1 mM DTT, pH 7.5, 10 nM ssDNA, 25 C 10 min or 37 C 5 min; mass photometry: 20 mM Tris-HCl, 50 mM NaCl, pH 7.5; conditions: protein: recombinant; tags: His-tag (pET-15b)
[11] = biological target: T1, RAD52(209); assay: mass photometry; 100 nM protein, 10 nM DNA; ring shift 40 ± 4 kDa; EMSA: 25 mM Tris-acetate, 2 mM Mg(OAc)2, 1 mM DTT, pH 7.5, 10 nM ssDNA, 25 C 10 min or 37 C 5 min; mass photometry: 20 mM Tris-HCl, 50 mM NaCl, pH 7.5; conditions: protein: recombinant; tags: His-tag (pET-15b); chain copies: 11
[12] = biological target: T1, RAD52(209); assay: mass photometry; 100 nM protein, 10 nM DNA; ring shift 32 ± 2 kDa; EMSA: 25 mM Tris-acetate, 2 mM Mg(OAc)2, 1 mM DTT, pH 7.5, 10 nM ssDNA, 25 C 10 min or 37 C 5 min; mass photometry: 20 mM Tris-HCl, 50 mM NaCl, pH 7.5; conditions: protein: recombinant; tags: His-tag (pET-15b); chain copies: 11

B1: RAD52(209), human RAD52 truncated after amino acid 209 (domain or fragment, UniProt P43351 1-209, looked up)
chain: MSGTEEAILGGRDSHPAAGGGSVLCFGQCQYTAEEYQAIQKALRQRLGPEYISSRMAGGGQKVCYIEGHRVINLANEMFGYNGWAHSITQQNVDFVDLNNGKFYVGVCAFVRVQLKDGSYHEDVGYGVSEGLKSKALSLEKARKEAVTDGLKRALRSFGNALGNCILDKDYLRSLNKLPRQLPLEVDLTKAKRQDLEPSVEEARYNSCR
notes: Expressed from pET-15b (plasmid a gift of S. C. West); No tag cleavage is described; The entry describes the protomer; also called C-terminally truncated RAD52; source: E. coli BL21(DE3) with pRARE, purified (Ni-NTA, size-exclusion chromatography)
Q: B1 was tested. Which “stoichiometry N” value [1] did it give?
A: The value was 11.

B2: full-length human RAD52 (natural protein, UniProt P43351 1-418, looked up)
chain: MSGTEEAILGGRDSHPAAGGGSVLCFGQCQYTAEEYQAIQKALRQRLGPEYISSRMAGGGQKVCYIEGHRVINLANEMFGYNGWAHSITQQNVDFVDLNNGKFYVGVCAFVRVQLKDGSYHEDVGYGVSEGLKSKALSLEKARKEAVTDGLKRALRSFGNALGNCILDKDYLRSLNKLPRQLPLEVDLTKAKRQDLEPSVEEARYNSCRPNMALGHPQLQQVTSPSRPSHAVIPADQDCSSRSLSSSAVESEATHQRKLRQKQLQQQFRERMEKQQVRVSTPSAEKSEAAPPAPPVTHSTPVTVSEPLLEKDFLAGVTQELIKTLEDNSEKWAVTPDAGDGVVKPSSRADPAQTSDTLALNNQMVTQNRTPHSVCHQKPQAKSGSWDLQTYSADQRTTGNWESHRKSQDMKKRKYDPS
notes: RAD52, human, full length; Expressed from pET-15b (plasmid a gift of W. Kagawa); No tag cleavage is described; The entry describes the protomer; the oligomer size varies with concentration; source: E. coli BL21(DE3) with pRARE, purified (Ni-NTA, size-exclusion chromatography)
Q: B2 was tested. Which Kd [2] did it give?
A: Its Kd is 14 ± 2 nM.

Q: What about the “stoichiometry N” value [2] of the same binder?
A: Its value is 10.6 protomers per ring and 7 protomers to 13 protomers (2×).

Q: And the “stoichiometry N” value [1]?
A: Its value is 8 protomers to 12 protomers (2×) and 10.

B3: 60 nt (ssDNA)
DNA: TCCTTTTGATAAGAGGTCATTTTTGCGGATGGCTTAGAGCTTAATTGCTTTTTTTTTTTT
Q: B3 was tested. Which Kd [3] did it give?
A: Its Kd is 127 ± 10 nM.

Q: And the Kd [4]?
A: Its Kd is 112.4 ± 0.1 nM.

B4: 70 nt (ssDNA)
DNA: TTTAATAATTTACTTTATTTTCTATGTCTATTCATTTACTTATTGTGTATTATCCTTATACTTACTTAC
Q: What does the source list for B4?
A: Kd [5]: 53 ± 8 nM; Kd [6]: 109 ± 23 nM

Q: How did the Kd [7] turn out when GCTCTAAGCCATCCGCAAAAATGACCTCTTAT (ssDNA) [32 nt] was run?
A: The Kd was 135 ± 4 nM.

Q: And the Kd [8]?
A: Its Kd is 246 ± 33 nM.

Q: And the Kd [9]?
A: Its Kd is 169 ± 24 nM.

Q: What about the Kd [10] of the same binder?
A: The Kd was 115 ± 22 nM.

B5: 83 nt (ssDNA)
DNA: TTTATATAATTTACTTTATTTTCTATGTCTATTCATTTACTTATTGTGTATTATCCTTATACTTACTTACTTTATGTTTATTT
Q: Does B5 bind [11]?
A: Result: binds

Q: Does GCAATTAAGCTCTAAGCCATCCGCAAAAATGACCTCTTATCAAAAGGA (ssDNA) [48 nt unlabeled] bind [12]?
A: Result: binds
